Reference: PMC10312659

Target: Polyketide synthase 13 (Pks13) of Mycobacterium smegmatis, endogenous, with native substrates bound (Mycobacterium smegmatis) (UniProt A0R617)
Test: SEC

stoichiometry N: 4
Substance: Polyketide synthase 13 (Pks13) of Mycobacterium smegmatis, endogenous, with native substrates bound (from UniProt A0R617 1-1816) (enzyme)
